The values that follow come from article PMC8610301 (Current Research in Microbial Sciences, 2021).

The stoichiometry N is a count of units in the complex or per binding partner.

Where two headings read alike, the source gives them in different places.

Series [1] concerns the molecule itself. In words: immunoblot after SDS-PAGE. (A western blot detects proteins with antibodies after separation by electrophoresis.)
Series [2] concerns the molecule itself. Description: immunoblot after SDS-PAGE. This is another data set of the same source.

B1: recombinant Cas2 of Leptospira interrogans (LinCas2) (enzyme, UniProt Q8F1F4 1-94, looked up)
chain: MKHWRLVSYDIREPKRLRRVAKIMEGFGERIQYSVFRIYSTDKELEKLRWKLAKVTEEEDNIFYLTLCTKCASGAHTQEKKSAWPEAPKTLKIL
For B1, the “stoichiometry N” value in series [1] is 2.

B2: native LinCas2 in the lysate of L. interrogans serovar Copenhageni (natural protein, UniProt Q8F1F4 1-94, looked up)
chain: MKHWRLVSYDIREPKRLRRVAKIMEGFGERIQYSVFRIYSTDKELEKLRWKLAKVTEEEDNIFYLTLCTKCASGAHTQEKKSAWPEAPKTLKIL
In the case of B2, in series [2], the “stoichiometry N” value came to 2.
